Results on two molecules are retold here after patent US20040002450A1, “Y17 - isolated molecules comprising epitopes containing sulfated moieties, antibodies to such epitopes, and uses thereof” (priority 2000, published 2004).

Experiment [1] has as its system platelet GPIbα. Kind of experiment: Western blot/FACS of endoprotease-cleaved platelet GPIbα and glycocalicin. Format: binding, human. As to conditions: immunoblots and FACS. An excerpt:
(§1) Immunoblotting and endoprotease cleavage techniques were used to identify the epitope for Y1 on the surface membrane of platelets.
(§2) The enzyme O-Sialoglycoprotein endoprotease from Pasteurella haemolytica (Cedarlan CLE 100) selectively cleaves human platelet GPIb and specifically cleaves only proteins containing sialylated, O-linked glycans. […] This enzyme has been reported to cleave GPIb, which is heavily O-glycosylated, but not GPIIb-IIIa or other receptors on platelets. GPIbα was digested with O-Sialoglycoprotein endoprotease in order to further establish the binding of Y1 to the molecule.
(§3) Mocarhagin [Sigma L4515a] is a cobra venom metalloproteinase that cleaves platelet GPIbα specifically at a single site between residues glu-282 and asp-283, thereby generating two stable products: a ˜45-kDa N-terminal fragment (His1-Glu282), which is released into the supernatant, and a membrane-bound ˜95 kDa C-terminal fragment.
(§4) Cathepsin G (Sigma C4428), a neutrophil serine protease, cleaves glycocalicin at a first cleavage site between residues Leu-275 and Tyr-276 and at a second cleavage site between residues Val-296 and Lys-297. Cathepsin G treatment of glycocalicin generates two N-terminal fragments: a small N-terminal 42 kDa fragment (His1-Leu275), a large N-terminal 45 kDa N-terminal fragment (His1-Val-296), and corresponding ˜95 kDa C-terminal fragments. (FIG. 1).
(§5) For mocarhagin digestion, 10^8 washed platelets in TS buffer (0.01 M Tris, 0.15 M sodium chloride, pH 7.4) containing 1 mM calcium chloride were treated with 12 μg/ml mocarhagin (final concentration) for 1 hour at 22° C. and digestion was stopped by adding EDTA to 0.01 M.
(§6) 10^6 platelets in 0.1 M Tris buffer pH 7.4 containing 0.2% albumin and protease inhibitors (10 μM leupeptin, 0.24 mM PMSF) was incubated with 0.14 mg/ml O-Sialoglycoprotein endoprotease (final concentration) for 45 min at 37° C. and digestion was stopped by adding sample buffer and boiling. The sample buffer used contained 3% SDS, 12% glycerol, 50 mM Tris HCl, 2% β-mercaptoethanol, and 0.03% bromphenol blue.
(§7) For mocarhagin digestion, glycocalicin in TS buffer containing 1 mM calcium chloride was incubated with 10 μg/ml mocarhagin (final concentration) for 1 hour at 22° C. and digestion was stopped by adding EDTA to 0.01 M.
(§8) For cathepsin G digestion, glycocalicin in TS buffer containing 1 mM calcium chloride was incubated with 3.4 μg/ml cathepsin G (final concentration) for 4 hour at 22° C. and digestion was stopped by adding PMSF to 1 mM.
A general note: A western blot detects proteins with antibodies after separation by electrophoresis.

Experiment [2] concerns the target T1, platelet GPIbα (Homo sapiens, UniProt P07359).
T1 construct: endogenous in cells; host or cells: washed human platelets (blood-bank platelet concentrate)
Described as above. Format: binding.
Source text: as §1, §2, §3, §4, §5, §6, §7, §8

In a further experiment the test system is washed platelets. The experiment is described as follows: Ristocetin-induced agglutination of washed platelets after scFv preincubation. Format: cell-based, human. On the procedure: Aggregation is determined in PRP due to the presence of thrombotic agents, while agglutination is determined in washed platelets. The effect of Y1 (scFv) on agglutination of washed platelets was tested at various concentrations of Y1. Platelets were pre-incubated with Y1 scFv, Y17 scFv, Y16-scFv, or a control TM-1 scFv for 4 min at 37° C. before being exposed to ristocetin, an inducer of platelet agglutination and aggregation.
Platelet concentrate in acid-citrate-dextrose (ACD) was obtained from a blood bank, platelets were isolated, washed once in buffer containing ACD and saline in a ratio of 1:7. The platelets were centrifuged at 800 g for 10 min after each wash and were resuspended in Tyrodes solution (2 mM MgCl2, 137 mM NaCl, 2.68 mM KCl, 3 mM NaH2PO4, 0.1% glucose, 5 mM Hepes and 0.35% albumin, pH 7.35) and count the number of cells.
(§9) For platelet aggregation studies, platelet rich plasma (PRP) and washed platelets were stirred at 500 rpm at 37° C. in whole blood Lumiaggregometer (Chronolog, Havertown, Pa.). The difference in light transmission through the platelet suspension and suspending medium was taken as 100% aggregation. The effect of Y1 on platelet aggregation was evaluated by addition of different concentration of Y1 before the addition of agonist, and the effect was recorded for four minutes.
The effect of Y17-scFv on vWF-dependent agglutination of platelets was tested at different concentrations of Y17.

The test system of experiment [3] is platelet-rich-plasma (PRP). The experiment is described as follows: Ristocetin-induced aggregation of platelet-rich-plasma after scFv preincubation. Format: cell-based, human. On the procedure:
The effect of Y1 (scFv) on aggregation of platelet-rich-plasma (PRP) was tested at various concentrations of Y1. PRP was pre-incubated with Y1 scFv, Y17 scFv, or a control sTM-1cFv for 4 min at 37° C. before being exposed to ristocetin, an inducer of platelet agglutination and aggregation. A reversible inhibitory effect was observed when scFv was added to PRP prior to the addition of ristocetin, and it was dose dependent.
Blood was collected into a tube containing 3.8% sodium citrate. Platelet-rich plasma was prepared by centrifugation at 250×g for 10 minutes.
as §9

The target in experiment [4] is T2, GPIb (glycocalicin) derived from platelets (Homo sapiens, UniProt P07359).
T2 construct: glycocalicin (soluble, extracellular fragment of GPIbα); from tissue; host or cells: human platelets
The experiment is described as follows: ELISA to GC (glycocalicin), monomer versus dimer. Format: binding. How it is done: An ELISA assay was performed to ascertain the differences in binding between the monomer (the Y1 scFv-also known as Y1-kak) and the dimer Y1-cys-kak (the cysteine dimer) for antigen GPIb (glycocalicin) derived from platelets. A polyclonal anti single chain antibody and/or a novel polyclonal anti-VL (derived from rabbits) and anti-rabbit HRP, were used to detect the binding to GPIb. […] For instance, to reach 0.8 OD units 12.8 μg/ml of monomer was used compared to only 0.1 μg/ml of dimer.
100 ml of purified glycocalicin was incubated in a 96 flat well maxisorp plates, overnight at 4 degrees celsius. The plate was washed with PBST (PBS+0.05% tween) 3 times, then […] of PBST-milk (PBST+2% Non fat milk), for 1 hr at room temperature. The plate was washed with PBST, and the monomer or dimer (100 ml) was added in PBST-milk at different concentrations for 1 hr at room temp. Then the plate was washed and anti-VL polyclonal (derived from immunized rabbits with VL derived from Y1) (1:100 diluted in PBST-milk) was added for an hour. The plate was washed and anti-rabbit HRP was added for an additional hour. The plate was washed 5 times and 100 μl TMB substrate was added for approximately 15 minutes then 100 μl of 0.5H2SO4 was added to stop the reaction. The optical density of the plate was measured at 450 nm in an ELISA reader.

B1: Y17 scFv: second human scFv clone selected on platelets; SEQ ID NO: 203, heavy chain CDR3 SEQ ID NO: 20 (protein, listed as Homo sapiens)
scFv: MKYLLPTAAAGLLLLAAQPAMAEVQLVESGGGVVRPGGSLRLSCAASGFTFDDYGMSWVRQAPGKGLEWVSGINWNGGSTGYADSVKGRFTISRDNAKNSLYLQMNSLRAEDTAVYYCARLTHPYFWGQGTLVTVSRGGGGSGGGGSGGGGSSELTQDPAVSVALGQTVRITCQGDSLRSYYASWYQQKPGQAPVLVIYGKNNRPSGIPDRFSGSSSGNTASLTITGAQAEDEADYYCNSRDSSGNHVVFGGGTKLTVLGAAAEQKLISEEDLNGAA
On to B1, for which the “binding to washed platelets after O-Sialoglycoprotein endoprotease” value with platelet GPIbα [1] is listed as “abolishes binding”. Moreover, in the experiment with platelet GPIbα [2] (Western blot), the “binding to cathepsin G fragments of glycocalicin” value is “bound to the larger fragment (His1-Val-296), but not to the smaller fragment (His1-Leu275)”. For the same molecule, the “binding after mocarhagin treatment of washed platelets” value with platelet GPIbα [2] (Western blot of platelet lysates) is listed as “binding of Y17 to the N-terminal 45 kDa tryptic fragment”. Moreover, the “effect on vWF-dependent platelet agglutination in washed platelets induced by ristocetin (in words)” value in the experiment on washed platelets (final concentration of 10, 25 or 50 μg/ml) was “did not inhibit”. Moreover, the “% inhibition” value in the experiment with washed platelets (scFv 25 μg/ml, washed platelets, ristocetin) is on record as 15%; in experiment [3] (scFv 38 μg/ml, PRP, ristocetin), 0%. The “% agglutination” value with washed platelets (scFv 25 μg/ml, washed platelets, ristocetin = 100%) was 85%. Besides, the “effect on ristocetin-induced platelet aggregation in PRP (in words)” value in experiment [3] (concentration not given) was “did not inhibit”. The “% aggregation” value in experiment [3] (scFv 38 μg/ml, PRP, ristocetin = 100%) is 100%.

B2: Y1-cys-kak: Y1 scFv with cysteine and lysine-alanine-lysine at the carboxyl end, forms a dimer; SEQ ID NO: 212 (protein)
scFv: MEVQLVESGGGVVRPGGSLRLSCAASGFTFDDYGMSWVRQAPGKGLEWVSGINWNGGSTGYADSVKGRFTISRDNAKNSLYLQMNSLRAEDTAVYYCARMRAPVIWGQGTLVTVSRGGGGSGGGGSGGGGSSELTQDPAVSVALGQTVRITCQGDSLRSYYASWYQQKPGQAPVLVIYGKNNRPSGIPDRFSGSSSGNTASLTITGAQAEDEADYYCNSRDSSGNHVVFGGGTKLTVLGGGGCKAK
On to B2, for which, in experiment [4], the “activity relative to the monomer” value was “approximately 100 fold” and the “concentration used to reach 0.8 OD units” value turned out to be 0.1 µg/mL.

For orientation: % inhibition means the relative decrease from the control value, in per cent. Read a high % inhibition as strong suppression.
